Test results from the supplement of paper PMC9112550, “Optimization of the antimicrobial peptide Bac7 by deep mutational scanning” (BMC Biology, 2022).

System: Escherichia coli TOP10
Test: shrunken log2 fold change of peptide-encoding DNA abundance (4.5 h post-induction vs induction); higher = less antimicrobial activity (less host growth inhibition)
Conditions: time post-induction: 4.5 h; library: site-saturation at positions 5, 18, 19, 20
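Also: peptides expressed intracellularly from a pBAD plasmid library in pooled LB shake-flask culture, induced with 0.3% L-arabinose, DNA abundance read by NGS, three biological replicates, DESeq2 with apeglm shrinkage.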

Row | Sequence | shrunken log2 fold change
1 | RRIRLRPPRLPRPRPRPGEYPRP | -0.0271
2 | RRIRQRPPRLPRPRPRPKRTPRP | 0.00512
3 | RRIRIRPPRLPRPRPRPYEKPRP | -0.352
4 | RRIRGRPPRLPRPRPRPQMKPRP | 0.29
5 | RRIRYRPPRLPRPRPRPGTHPRP | -0.678
6 | RRIRVRPPRLPRPRPRPHIAPRP | -0.235
7 | RRIRRRPPRLPRPRPRPAWDPRP | 0.324
8 | RRIRVRPPRLPRPRPRPRSDPRP | -0.258
9 | RRIRGRPPRLPRPRPRPLFVPRP | 0.203
10 | RRIRKRPPRLPRPRPRPPNTPRP | 0.408
11 | RRIRKRPPRLPRPRPRPSLKPRP | -0.0893
12 | RRIRLRPPRLPRPRPRPHSVPRP | -0.0683
13 | RRIRVRPPRLPRPRPRPPMTPRP | 0.209
14 | RRIRSRPPRLPRPRPRPMCLPRP | 0.038
15 | RRIRNRPPRLPRPRPRPTGVPRP | 0.147
16 | RRIRFRPPRLPRPRPRPHAFPRP | -0.411
17 | RRIRWRPPRLPRPRPRPCVWPRP | 0.738
18 | RRIRRRPPRLPRPRPRPGREPRP | -0.0226
19 | RRIRERPPRLPRPRPRPHLAPRP | 0.101
20 | RRIRMRPPRLPRPRPRPTEFPRP | 0.0756
21 | RRIRMRPPRLPRPRPRPDCYPRP | -0.15
22 | RRIRNRPPRLPRPRPRPCQVPRP | -0.106
23 | RRIRYRPPRLPRPRPRPINPPRP | -0.269
24 | RRIRSRPPRLPRPRPRPQENPRP | -0.0522
25 | RRIRIRPPRLPRPRPRPEVIPRP | -0.0583

Row | Sequence | shrunken log2 fold change
26 | RRIRARPPRLPRPRPRPWSSPRP | -0.656
27 | RRIRCRPPRLPRPRPRPCVMPRP | -0.0643
28 | RRIRPRPPRLPRPRPRPTHAPRP | 0.131
29 | RRIRDRPPRLPRPRPRPAIIPRP | 0.0892
30 | RRIRGRPPRLPRPRPRPFQDPRP | -0.000102
31 | RRIRWRPPRLPRPRPRPMDSPRP | -0.198
32 | RRIRERPPRLPRPRPRPQEMPRP | -0.391
33 | RRIRQRPPRLPRPRPRPDCYPRP | -0.304
34 | RRIRKRPPRLPRPRPRPIDIPRP | 0.00848
35 | RRIRARPPRLPRPRPRPCMIPRP | -0.261
36 | RRIRQRPPRLPRPRPRPWPVPRP | 0.103
37 | RRIRERPPRLPRPRPRPDCSPRP | -0.148
38 | RRIRDRPPRLPRPRPRPKVMPRP | -0.054
39 | RRIRIRPPRLPRPRPRPHLAPRP | 0.0435
40 | RRIRLRPPRLPRPRPRPYIVPRP | -0.0573
41 | RRIRNRPPRLPRPRPRPPFDPRP | 0.141
42 | RRIRRRPPRLPRPRPRPGQRPRP | 0.386
43 | RRIRSRPPRLPRPRPRPPMGPRP | -0.0142
44 | RRIRQRPPRLPRPRPRPRCYPRP | 0.0331
45 | RRIRLRPPRLPRPRPRPDWDPRP | -0.183
46 | RRIRGRPPRLPRPRPRPCPQPRP | 0.654
47 | RRIRLRPPRLPRPRPRPQSRPRP | -0.377
48 | RRIRKRPPRLPRPRPRPCQLPRP | -0.0631
49 | RRIRVRPPRLPRPRPRPDEFPRP | -0.0422
50 | RRIRPRPPRLPRPRPRPWGMPRP | -0.128

Row | Sequence | shrunken log2 fold change
51 | RRIRQRPPRLPRPRPRPWGCPRP | -0.122
52 | RRIRLRPPRLPRPRPRPQKFPRP | 0.0452
53 | RRIRRRPPRLPRPRPRPQFAPRP | 0.0495
54 | RRIRARPPRLPRPRPRPMAGPRP | 0.163
55 | RRIRTRPPRLPRPRPRPLQTPRP | -0.00743
56 | RRIRYRPPRLPRPRPRPLHTPRP | -0.169
57 | RRIRERPPRLPRPRPRPIFEPRP | 0.0601
58 | RRIRRRPPRLPRPRPRPCQAPRP | 0.0144
59 | RRIRPRPPRLPRPRPRPLEDPRP | 0.492
60 | RRIRNRPPRLPRPRPRPDYRPRP | -0.668
61 | RRIRIRPPRLPRPRPRPNSVPRP | -0.342
62 | RRIRDRPPRLPRPRPRPMKDPRP | -0.0395
63 | RRIRARPPRLPRPRPRPIFPPRP | 0.32
64 | RRIRQRPPRLPRPRPRPWFAPRP | -0.16
65 | RRIRMRPPRLPRPRPRPGVNPRP | -0.0818
66 | RRIRMRPPRLPRPRPRPWCHPRP | 0.0355
67 | RRIRMRPPRLPRPRPRPHYSPRP | -0.624
68 | RRIRLRPPRLPRPRPRPDPTPRP | 0.0311
69 | RRIRSRPPRLPRPRPRPIHAPRP | -0.0213
70 | RRIRRRPPRLPRPRPRPNRPPRP | 0.198
71 | RRIRIRPPRLPRPRPRPGFGPRP | 0.28
72 | RRIRTRPPRLPRPRPRPNCFPRP | -0.0362
73 | RRIRFRPPRLPRPRPRPTAWPRP | 0.618
74 | RRIRFRPPRLPRPRPRPPFQPRP | 0.258
75 | RRIRQRPPRLPRPRPRPRGEPRP | 0.348

Row | Sequence | shrunken log2 fold change
76 | RRIRVRPPRLPRPRPRPQPCPRP | -0.0059
77 | RRIRKRPPRLPRPRPRPCMFPRP | -0.167
78 | RRIRVRPPRLPRPRPRPNCCPRP | -0.0903
79 | RRIRQRPPRLPRPRPRPFLYPRP | -0.615
80 | RRIRARPPRLPRPRPRPADSPRP | 0.00021
81 | RRIRARPPRLPRPRPRPVEKPRP | 0.347
82 | RRIRSRPPRLPRPRPRPEWDPRP | 0.365
83 | RRIRGRPPRLPRPRPRPSSDPRP | 0.439
84 | RRIRARPPRLPRPRPRPGLWPRP | 1.04
85 | RRIRERPPRLPRPRPRPACFPRP | 0.00624
86 | RRIRRRPPRLPRPRPRPSCRPRP | 0.0338
87 | RRIRARPPRLPRPRPRPFMNPRP | -0.0629
88 | RRIRKRPPRLPRPRPRPYEFPRP | 0.101
89 | RRIRYRPPRLPRPRPRPEKFPRP | -0.0136
90 | RRIRFRPPRLPRPRPRPFMVPRP | -0.654
91 | RRIRIRPPRLPRPRPRPTLHPRP | -0.377
92 | RRIRWRPPRLPRPRPRPFYFPRP | 0.0389
93 | RRIRGRPPRLPRPRPRPVKNPRP | 0.554
94 | RRIRMRPPRLPRPRPRPVCAPRP | 0.698
95 | RRIRFRPPRLPRPRPRPEMYPRP | -0.00146
96 | RRIRWRPPRLPRPRPRPDFRPRP | 0.169
97 | RRIRNRPPRLPRPRPRPILVPRP | -0.0115
98 | RRIRRRPPRLPRPRPRPMPTPRP | 0.178
99 | RRIRVRPPRLPRPRPRPICFPRP | 0.0059
100 | RRIRARPPRLPRPRPRPMEHPRP | -0.223

Row | Sequence | shrunken log2 fold change
101 | RRIRFRPPRLPRPRPRPVYKPRP | -0.295
102 | RRIRGRPPRLPRPRPRPAMPPRP | 0.492
103 | RRIRRRPPRLPRPRPRPLKNPRP | 0.29
104 | RRIRYRPPRLPRPRPRPDQHPRP | -0.13
105 | RRIRQRPPRLPRPRPRPKARPRP | 0.152
106 | RRIRDRPPRLPRPRPRPYGGPRP | -0.122
107 | RRIRCRPPRLPRPRPRPRCTPRP | -0.00347
108 | RRIRNRPPRLPRPRPRPGTAPRP | -0.0363
109 | RRIRRRPPRLPRPRPRPIRIPRP | -0.106
110 | RRIRQRPPRLPRPRPRPHWPPRP | -0.0715
111 | RRIRLRPPRLPRPRPRPKFDPRP | -0.115
112 | RRIRWRPPRLPRPRPRPGCMPRP | 0.464
113 | RRIRYRPPRLPRPRPRPLENPRP | -0.0143
114 | RRIRNRPPRLPRPRPRPNKAPRP | -0.000622
115 | RRIRARPPRLPRPRPRPVSNPRP | 0.296
116 | RRIRMRPPRLPRPRPRPCHQPRP | -0.0062
117 | RRIRCRPPRLPRPRPRPAPSPRP | 0.504
118 | RRIRLRPPRLPRPRPRPVQEPRP | -0.0609
119 | RRIRHRPPRLPRPRPRPVIEPRP | -0.0264
120 | RRIRIRPPRLPRPRPRPCYHPRP | -0.265
121 | RRIRWRPPRLPRPRPRPVVNPRP | 0.261
122 | RRIRYRPPRLPRPRPRPKMRPRP | 0.198
123 | RRIRNRPPRLPRPRPRPSKSPRP | -0.227
124 | RRIRDRPPRLPRPRPRPIIPPRP | -0.644
125 | RRIRYRPPRLPRPRPRPNHIPRP | -1.27
